Patent US20240108766A1 (Bayer, published 2024)

Assays:
[1] = biological target: T1, human LRRC15 expressed on cells (human, UniProt Q8TF66 22-581); assay: flow cytometry, transfected HEK293, 2.5 µg/ml
T1 construct: whole, on cells; On HEK293 cells transfected with LRRC15/ZsGreen1 (Retrogenix), on HT29 cells transfected with human LRRC15, and endogenous on Saos-2; also called LRRC15/ZsGreen1 transfected HEK293 cells; HT29-LRRC15
T1 sequence (looked up): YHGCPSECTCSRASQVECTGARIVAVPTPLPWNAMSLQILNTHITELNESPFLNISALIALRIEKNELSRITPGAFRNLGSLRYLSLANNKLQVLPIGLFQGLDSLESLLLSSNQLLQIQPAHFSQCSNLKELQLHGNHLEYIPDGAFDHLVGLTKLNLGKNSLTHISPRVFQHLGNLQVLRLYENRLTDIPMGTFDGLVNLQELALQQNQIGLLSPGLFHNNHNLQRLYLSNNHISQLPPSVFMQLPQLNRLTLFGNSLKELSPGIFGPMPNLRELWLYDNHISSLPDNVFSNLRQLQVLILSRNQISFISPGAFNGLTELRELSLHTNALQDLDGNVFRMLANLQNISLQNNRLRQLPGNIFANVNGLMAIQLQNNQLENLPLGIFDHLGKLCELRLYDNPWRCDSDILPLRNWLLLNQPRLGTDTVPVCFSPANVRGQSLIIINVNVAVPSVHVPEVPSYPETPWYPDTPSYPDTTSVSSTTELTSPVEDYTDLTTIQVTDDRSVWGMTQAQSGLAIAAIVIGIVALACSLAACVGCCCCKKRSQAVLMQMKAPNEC

[2] = biological target: T1, human LRRC15 expressed on cells; assay: flow cytometry, transfected HEK293, 0.1 µg/ml
[3] = biological target: T2, human LRRC15 extracellular domain with C-terminal His tag (human, UniProt Q8TF66 22-538); assay: SPR Biacore T200, 25°C, antibody captured, LRRC15 analyte
T2 construct: Recombinant, made in HEK293; the entry holds the extracellular domain and the His tag; SPR analyte; also called TPP-1545; hLRRC15 CT-His
T2 sequence: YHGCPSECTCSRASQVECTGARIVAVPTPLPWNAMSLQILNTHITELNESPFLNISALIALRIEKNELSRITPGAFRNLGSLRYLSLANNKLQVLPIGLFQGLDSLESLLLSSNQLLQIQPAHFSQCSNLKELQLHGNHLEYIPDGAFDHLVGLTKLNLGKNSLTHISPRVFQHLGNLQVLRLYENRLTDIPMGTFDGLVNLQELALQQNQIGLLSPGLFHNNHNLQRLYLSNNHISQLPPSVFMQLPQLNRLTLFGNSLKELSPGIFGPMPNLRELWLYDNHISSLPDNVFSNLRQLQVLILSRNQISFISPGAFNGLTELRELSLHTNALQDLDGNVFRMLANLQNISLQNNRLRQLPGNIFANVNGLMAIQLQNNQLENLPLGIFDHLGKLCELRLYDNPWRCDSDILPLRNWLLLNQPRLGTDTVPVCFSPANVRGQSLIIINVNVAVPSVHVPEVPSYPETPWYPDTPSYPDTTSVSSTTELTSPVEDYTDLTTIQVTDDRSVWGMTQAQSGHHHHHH
Description: To assess the binding kinetics and affinity of anti-LRRC15 antibodies as well as their species cross-reactivity profile, binding assays were conducted using surface plasmon resonance (SPR). Binding assays were performed on a Biacore T200 instrument at 25° C. using assay buffer HBS EP+, 1 mg/ml BSA, 300 mM NaCl, 0.05% NaN3. Antibodies were captured via anti-human Fc IgGs covalently amine coupled to a CM5 sensor chip and human, mouse and cynomolgus LRRC15 were used as analytes in a concentration series from 1.56-200 nM in multi cycle kinetics mode. […] Obtained sensorgrams were fitted to a 1:1 Langmuir binding model to derive kinetic data.

[4] = biological target: T1, human LRRC15 expressed on cells; assay: flow cytometry, transfected HEK293, 0.5 µg/ml
[5] = biological target: T2, human LRRC15 extracellular domain with …; assay: SPR thermodynamics (van't Hoff/Eyring), 10-37°C
Description: Thermodynamics help to explain why an interaction is happening and what the driving forces for the interaction are. To assess the thermodynamic parameters for anti-LRRC15 antibodies binding assays were conducted using surface plasmon resonance (SPR). Binding assays were performed on a Biacore T200 instrument at temperatures of 10° C., 20° C., 25° C. and 37° C. with assay buffer HBS EP+, 1 mg/ml BSA, 300 mM NaCl, 0.05% NaN3. Antibodies were captured via anti-human Fc IgGs covalently amine coupled to a CM5 sensor chip and human LRRC15 was used as an analyte in a concentration series from 1.56-200 nM in multi cycle kinetics mode. Pre-experiments were conducted to have an equal capture level at each temperature. Obtained sensorgrams were fitted to a 1:1 Langmuir binding model to derive kinetic data. Thermodynamic parameters were obtained using the integrated thermodynamics wizard in the Biacore T200 software. Van′t Hoff and Eyring plots were calculated and plotted and thermodynamic parameters were derived.

[6] = biological target: T2, human LRRC15 extracellular domain with …; assay: SPR Biacore T200, antibody captured, LRRC15 analyte, 37°C
Description: To assess if anti-LRRC-15 antibodies show a difference in binding at different temperatures, binding assays were conducted using surface plasmon resonance (SPR). Binding assays were performed on a Biacore T200 instrument at temperatures of 10° C., 20° C., 25° C. and 37° C. with assay buffer HBS EP+, 1 mg/ml BSA (bovine serum albumine), 300 mM NaCl, 0.05% NaN₃. Antibodies were captured via anti-human Fc IgGs covalently amine coupled to a CM5 sensor chip and human LRRC15 was used as an analyte in a concentration series from 1.56-200 nM in multi cycle kinetics mode. Pre-experiments were conducted to have an equal capture level at each temperature. Obtained sensorgrams were fitted to a 1:1 Langmuir binding model to derive kinetic data.

[7] = biological target: T1, human LRRC15 expressed on cells; assay: flow cytometry, transfected HEK293, 62.5 µg/ml

Row | Binder | Median Fluorescence AF647 [1] | Median Fluorescence AF647 [2] | Kd [3] | Median Fluorescence AF647 [4] | -TΔS [5] | ΔG^0 [5] | ΔH^0 [5] | Kd [6] | Median Fluorescence AF647 [7]
1 | TPP-12942 (antibody, human IgG1, kappa, V domains shown, Prior art humanized IgG1 kappa antibody, used as comparator; also called huM25; huM25-hIgG1Kappa) VH: EVQLVQSGAEVKKPGASVKVSCKASGYKFSSYWIEWVKQAPGQGLEWIGEILPGSDTTNYNEKFKDRATFTSDTSINTAYMELSRLRSDDTAVYYCARDRGNYRAWFGYWGQGTLVTVSS VL: DIQMTQSPSSLSASVGDRVTITCRASQDISNYLNWYQQKPGGAVKFLIYYTSRLHSGVPSRFSGSGSGTDYTLTISSLQPEDFATYFCQQGEALPWTFGGGTKVEIKR | 746000 | 213000 | 25 nM | 524000 | 6.69 kcal/mol | -10.5 kcal/mol | -17 kcal/mol | 72 nM | 620000
2 | TPP-17078 (antibody, human IgG1, kappa, V domains shown, also called 438H-M308-H05-hIgGkappa) VH: EVQLVQSGAEVKKPGASVKVSCKASGYKFSSYWIEWVKQAPGQGLEWIGEILPGSDTTNYNEKFKDRATFTSDTSINTAYMELSRLRSDDTAVYYCARDRGNYRAWFGYWGQGTLVTVSS VL: DIQMTQSPSSLSASVGDRVTITCRASQSISSYLNWYQQKPGGAPKFLIYYASSLQSGVPSRFSGSGSGTDYTLTISSLQPEDFATYYCQQGFSLPWTFGGGTKVEIKR | 777000 | 284000 | 1.7 nM | 527000 | 10.3 kcal/mol | -12 kcal/mol | -22.2 kcal/mol | 9.9 nM | 621000
3 | TPP-17421 (antibody, human IgG1, kappa, V domains shown, also called 438H-M306-C11-hIgG1Kappa) VH: EVQLVQSGAEVKKPGASVKVSCKASGYKFSSYWIEWVKQAPGQGLEWIGEILPGSDWTNYNEKFKDRATFTSDTSINTAYMELSRLRSDDTAVYYCARDRGNYRAWFQYWGQGTLVTVSS VL: DIQMTQSPSSLSASVGDRVTITCRASQSISSYLNWYQQKPGGAPKFLIYYASSLQSGVPSRFSGSGSGTDYTLTISSLQPEDFATYYCQQGLELPWTFGGGTKVEIKR | 649000 | 102000 | 0.96 nM | 391000 | -1.82 kcal/mol | -12.2 kcal/mol | -10.5 kcal/mol | 2.4 nM | 650000
4 | TPP-14389 (antibody, human IgG1, kappa, V domains shown, also called 13612-rec02-hIgG1Kappa) VH: EVQLLESGGGLVQPGGSLRLSCAASGFTFSGYMMSWVRQAPGKGLEWVSGIYPSPGYTYYADSVKGRFTISRDNSKNTLYLQMNSLRAEDTAVYYCAREKASDLFGSYSEALDYWGQGTLVTVSS VL: DIQMTQSPDSLSASVGDRVTITCRASQDVGSWLAWYQQKPGKAPKLLIFAASSLESGIPSRFSGSGSGTDFTLTISSLQPEDFATYYCQQANGFPLTFGGGTKVEIKR | – | – | 5.9 nM | – | 19.4 kcal/mol | -11.2 kcal/mol | -31.1 kcal/mol | 66 nM | –
